{"source": "paper PMC10147923", "about": "“Pain-causing stinging nettle toxins target TMEM233 to modulate NaV1.7 function” (Nature Communications, 2023)", "molecules": {"B1": {"name": "TMEM233 (protein)", "chain": "MSQYAPSPDFKRALDSSPEANTEDDKTEEDVPMPKNYLWLTIVSCFCPAYPINIVALVFSIMSLNSYNDGDYEGARRLGRNAKWVAIASIIIGLLIIGISCAVHFTRNA"}}, "target": "TMEM233 (Homo sapiens, UniProt B4DJY2)", "experiment": "Currents in Cos-1 cells transfected with TMEM233 only", "format": "cell-based", "procedure": "Whole-cell patch clamp experiments involving HEK293, COS-1, CHO, ND7/23, F11, SH-SY5Y and TE-671 cells were performed on a QPatch II automated electrophysiology platform (Sophion Bioscience, Ballerup, Denmark) as previously described. Cells at approximately 70–80% confluency were harvested from T75 flasks using TrypLE Express at 37 °C for 2–5 min and resuspended in DMEM with 25 mM HEPES (Sigma-Aldrich, NSW, Australia), 100 U/mL Penicillin-Streptomycin (Gibco) and 40 µg/mL trypsin inhibitor from Glycine max (soybean) (Sigma Aldrich) prior to recovery on a QStirrer (Sophion) for 30 min. 16-channel patch plates with a patch hole diameter of 1 μm and resistance of 2 ± 0.02 MΩ were used. Cell positioning and sealing parameters were as follows: positioning pressure −60 mbar, minimum seal resistance 0.1 GΩ, holding potential −100 mV, holding pressure −20 mbar. Whole-cell currents were filtered at 5 kHz and acquired at 25 kHz. Series resistance compensation was used and set to 70%.", "note": "Where “and” joins values, the source holds several entries; their conditions need not be identical. Identical values can stand only once.", "data": [{"molecule": "B1", "values": [{"measurement": "Peak Current, difference between means (COS-1 TMEM233 - COS-1) ± SEM", "value": "55.71 ± 37.05"}, {"measurement": "Peak Current, individual values", "value": "-254.824 and -273.19 and -178.816 and -233.506 and -232.738 and -200.138"}, {"measurement": "Peak Current, mean", "value": -228.9}]}]}
